Numbering of substitutions follows the chain as printed.

Common to all, as to experiment: cell-based or functional assay
Assay [1] concerns the target T1, IL-2Rα/β/γc complex (high affinity receptor) on human activated CD8+ T cells (human, UniProt P01589 22-272; P14784 27-551; P31785 23-369).
T1 sequence (looked up) 1: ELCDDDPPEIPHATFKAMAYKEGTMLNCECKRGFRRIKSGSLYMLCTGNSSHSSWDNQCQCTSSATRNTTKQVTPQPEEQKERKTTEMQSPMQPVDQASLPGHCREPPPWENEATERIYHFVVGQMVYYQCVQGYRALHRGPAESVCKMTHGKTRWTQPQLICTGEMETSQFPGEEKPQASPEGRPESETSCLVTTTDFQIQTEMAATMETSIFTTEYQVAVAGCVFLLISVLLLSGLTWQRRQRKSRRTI
T1 sequence (looked up) 2: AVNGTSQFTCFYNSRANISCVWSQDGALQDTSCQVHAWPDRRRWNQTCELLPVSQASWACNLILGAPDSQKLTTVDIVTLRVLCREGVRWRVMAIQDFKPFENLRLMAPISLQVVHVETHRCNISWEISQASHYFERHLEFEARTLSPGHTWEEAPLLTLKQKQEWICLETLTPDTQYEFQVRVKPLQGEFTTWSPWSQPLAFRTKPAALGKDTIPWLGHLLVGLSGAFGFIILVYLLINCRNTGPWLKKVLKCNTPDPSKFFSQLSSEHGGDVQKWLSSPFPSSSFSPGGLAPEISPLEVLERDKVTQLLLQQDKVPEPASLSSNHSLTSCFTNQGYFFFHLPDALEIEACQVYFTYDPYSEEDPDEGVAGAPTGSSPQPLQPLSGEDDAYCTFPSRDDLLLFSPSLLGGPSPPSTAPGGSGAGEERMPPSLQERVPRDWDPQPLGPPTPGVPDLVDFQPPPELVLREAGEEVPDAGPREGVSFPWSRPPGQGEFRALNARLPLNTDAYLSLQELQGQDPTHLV
T1 sequence (looked up) 3: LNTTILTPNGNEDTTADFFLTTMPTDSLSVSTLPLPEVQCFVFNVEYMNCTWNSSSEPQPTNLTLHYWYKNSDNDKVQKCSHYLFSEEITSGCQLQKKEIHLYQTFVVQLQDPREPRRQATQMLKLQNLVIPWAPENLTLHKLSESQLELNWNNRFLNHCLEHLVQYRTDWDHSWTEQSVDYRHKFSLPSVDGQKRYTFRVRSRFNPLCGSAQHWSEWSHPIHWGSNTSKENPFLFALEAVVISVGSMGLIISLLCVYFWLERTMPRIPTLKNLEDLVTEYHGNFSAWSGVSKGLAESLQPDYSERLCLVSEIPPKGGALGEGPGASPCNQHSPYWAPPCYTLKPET

In assay [2] the target is T2, IL-2Rα (CD25) on human activated CD8+ T cells (human, UniProt P01589 22-272).
T2 sequence (looked up): T1 sequence (looked up) 1

Assay [3] concerns the target PD-1 (on CHO-PD1 engineered cell line; on activated CD8+ T cells) (UniProt Q15116 25-288, limits assumed).
Assay [4] concerns the target T3, IL-2Rβ/γc complex (intermediate affinity receptor) on primary human CD8+ T cells (human, UniProt P14784 27-551; P31785 23-369).
T3 sequence (looked up) 1: T1 sequence (looked up) 2
T3 sequence (looked up) 2: T1 sequence (looked up) 3

In assay [5] the target is T1, IL-2Rα/β/γc complex (high affinity …). The source holds these as a separate data set.

B1: W3XX115-T3U0.E44-1.uIgG4V322 (Fc fusion)
chain: APTSSSTKKTQLQLEHLLLDLQMILNGINNYKNPKLTRMLTVKFAMPKKATELKHLQCLEEELKPLEEVLNGAQSKNFHLRPRDLISNINVIVLELKGSETTFMCEYADETATIVEFLNRWITFCQSIISTLTESKYGPPCPPCPAPEAAGGPSVFLFPPKPKDTLMISRTPEVTCVVVDVSQEDPEVQFNWYVDGVEVHNAKTKPREEQFNSTYRVVSVLTVLHQDWLNGKEYKCKVSNKGLPSSIEKTISKAKGQPREPQVYTLPPCQEEMTKNQVSLWCLVKGFYPSDIAVEWESNGQPENNYKTTPPVLDSDGSFFLYSRLTVDKSRWQEGNVFSCSVMHEALHNHYTQKSLSLSLG
heavy: EIQLQQSGPELVKPGASVKVSCKASGYSFTDYNMYWVKQSHGESLEWIGYIDPYNGGTRYNQKFKGKATLTVDKSSSTAFMHLNSLTSEDSAVYYCARNGHWDGAWFAYWGQGTLVTVSAASTKGPSVFPLAPCSRSTSESTAALGCLVKDYFPEPVTVSWNSGALTSGVHTFPAVLQSSGLYSLSSVVTVPSSSLGTKTYTCNVDHKPSNTKVDKRVESKYGPPCPPCPAPEAAGGPSVFLFPPKPKDTLMISRTPEVTCVVVDVSQEDPEVQFNWYVDGVEVHNAKTKPREEQFNSTYRVVSVLTVLHQDWLNGKEYKCKVSNKGLPSSIEKTISKAKGQPREPQVCTLPPSQEEMTKNQVSLSCAVKGFYPSDIAVEWESNGQPENNYKTTPPVLDSDGSFFLVSRLTVDKSRWQEGNVFSCSVMHEALHNHYTQKSLSLSLG
light: DIQMNQSPSSLSASLGDTITITCHASQNINVWLSWYQQKPGNIPKLLIYKASNLHTGVPSRFSGSRSGTGFTLTISSLQPEDIATYYCHQGQSYPFTFGSGTKLEIKRTVAAPSVFIFPPSDEQLKSGTASVVCLLNNFYPREAKVQWKVDNALQSGNSQESVTEQDSKDSTYSLSSTLTLSKADYEKHKVYACEVTHQGLSSPVTKSFNRGEC
For B1, in assay [1], the “Potency reduction, pSTAT5, human activated CD8+ T” value turned out to be 12.4 fold.

B2: W3XX115-T2U3.E44-6.uIgG4V322 (Fc fusion)
chain: APTSSSTKKTQLQLEHLLLDLQMILNGINNYKNPKLTRMLTFKFYMPKKATELKHLQCLEEELKPLEEVLNLAQSKNFHLRPRDLISNINVIVLELKGSETTFMCEYADETATIVEFLNRWITFCQSIIESKYGPPCPPCPAPEAAGGPSVFLFPPKPKDTLMISRTPEVTCVVVDVSQEDPEVQFNWYVDGVEVHNAKTKPREEQFNSTYRVVSVLTVLHQDWLNGKEYKCKVSNKGLPSSIEKTISKAKGQPREPQVYTLPPCQEEMTKNQVSLWCLVKGFYPSDIAVEWESNGQPENNYKTTPPVLDSDGSFFLYSRLTVDKSRWQEGNVFSCSVMHEALHNHYTQKSLSLSLGK
heavy: QVQLVQSGAEVKKPGSSVKVSCKASGFTFTTYYISWVRQAPGQGLEYLGYINMGSGGTNYNEKFKGRVTITADKSTSTAYMELSSLRSEDTAVYYCAIIGYFDYWGQGTMVTVSSASTKGPSVFPLAPCSRSTSESTAALGCLVKDYFPEPVTVSWNSGALTSGVHTFPAVLQSSGLYSLSSVVTVPSSSLGTKTYTCNVDHKPSNTKVDKRVESKYGPPCPPCPAPEAAGGPSVFLFPPKPKDTLMISRTPEVTCVVVDVSQEDPEVQFNWYVDGVEVHNAKTKPREEQFNSTYRVVSVLTVLHQDWLNGKEYKCKVSNKGLPSSIEKTISKAKGQPREPQVCTLPPSQEEMTKNQVSLSCAVKGFYPSDIAVEWESNGQPENNYKTTPPVLDSDGSFFLVSRLTVDKSRWQEGNVFSCSVMHEALHNHYTQKSLSLSLGK
light: DVVMTQSPLSLPVTLGQPASISCRSSQSLLDSDGGTYLYWFQQRPGQSPRRLIYLVSTLGSGVPDRFSGSGSGTDFTLKISRVEAEDVGVYYCMQLTHWPYTFGQGTKLEIKRTVAAPSVFIFPPSDEQLKSGTASVVCLLNNFYPREAKVQWKVDNALQSGNSQESVTEQDSKDSTYSLSSTLTLSKADYEKHKVYACEVTHQGLSSPVTKSFNRGEC
On to B2, for which, in assay [2], the “PD-1+/PD-1- ratio (pSTAT5 potency, activated versus primary CD8+ T)” value (“PD-1+/PD-1- ratio” below) was found to be 3470 fold. Further, in assay [3], the “PD-1+/PD-1- ratio” value amounted to 3470 fold. For the same molecule, in assay [4], the “Potency reduction, pSTAT5, human primary CD8+ T” value came out at 13.4 fold and the “pSTAT5 EC50, human primary CD8+ T” value worked out at 191 nM. In assay [5], the “Potency reduction, pSTAT5, human activated CD8+ T (CD25 positive and PD-1 positive)” value was 2 fold; the “pSTAT5 EC50, human activated CD8+ T (CD25 positive and PD-1 positive)” value stood at 55 pM.

B3: W3XX115-T2U3.E44-26.uIgG4V322 (Fc fusion)
chain: B2 chain with I129L
heavy: B2 heavy
light: B2 light
Take B3: the “PD-1+/PD-1- ratio” value in assay [2] was 4200 fold. The “PD-1+/PD-1- ratio” value in assay [3] stood at 4200 fold. Besides, in assay [4], the “Potency reduction, pSTAT5, human primary CD8+ T” value turned out to be 25.9 fold and the “pSTAT5 EC50, human primary CD8+ T” value stood at 370 nM. For the same molecule, in assay [5], the “Potency reduction, pSTAT5, human activated CD8+ T (CD25 positive and PD-1 positive)” value was 3.2 fold; the “pSTAT5 EC50, human activated CD8+ T (CD25 positive and PD-1 positive)” value stood at 88 pM.

The record behind these values is US20260232769A1 (WUXI BIOLOGICS IRELAND, published 2026).
